# Several values for one entry are separate records, joined by “and”; a condition that tells them apart may be missing. Equal values may be shown once. Read-outs that look alike come from different tables or passages of the source.
# T1: P450 4A11 (Homo sapiens, UniProt Q02928)
# T1 sequence (Q02928 5-519): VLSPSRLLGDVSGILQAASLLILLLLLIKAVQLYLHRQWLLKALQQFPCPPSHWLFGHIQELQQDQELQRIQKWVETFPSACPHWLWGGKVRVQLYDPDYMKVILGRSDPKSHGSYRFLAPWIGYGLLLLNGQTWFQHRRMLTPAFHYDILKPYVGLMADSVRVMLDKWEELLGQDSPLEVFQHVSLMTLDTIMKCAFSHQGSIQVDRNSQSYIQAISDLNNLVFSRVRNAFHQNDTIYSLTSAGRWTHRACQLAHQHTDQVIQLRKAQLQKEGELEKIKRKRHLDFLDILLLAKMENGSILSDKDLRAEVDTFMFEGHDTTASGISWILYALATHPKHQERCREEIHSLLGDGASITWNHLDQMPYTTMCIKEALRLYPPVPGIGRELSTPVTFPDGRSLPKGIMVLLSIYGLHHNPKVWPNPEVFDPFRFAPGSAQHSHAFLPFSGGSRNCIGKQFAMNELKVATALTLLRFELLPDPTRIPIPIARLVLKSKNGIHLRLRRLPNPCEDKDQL
# T2: P450 4A11 (Homo sapiens, UniProt Q02928)
# T2 construct: made in house; host or cells: E. coli
# T2 sequence (Q02928 5-519): T1 sequence (Q02928 5-519)
# T2 sequence (P07148 with tags, fused parts or gaps partner): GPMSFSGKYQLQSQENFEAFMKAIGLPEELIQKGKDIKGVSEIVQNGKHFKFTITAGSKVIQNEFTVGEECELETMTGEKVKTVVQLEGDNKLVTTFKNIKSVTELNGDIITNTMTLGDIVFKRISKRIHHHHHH
# T3: P450 101A1 (P450cam) (Pseudomonas putida, UniProt P00183)
# T3 construct: made in house
# T3 sequence (P00183 whole entry, looked up): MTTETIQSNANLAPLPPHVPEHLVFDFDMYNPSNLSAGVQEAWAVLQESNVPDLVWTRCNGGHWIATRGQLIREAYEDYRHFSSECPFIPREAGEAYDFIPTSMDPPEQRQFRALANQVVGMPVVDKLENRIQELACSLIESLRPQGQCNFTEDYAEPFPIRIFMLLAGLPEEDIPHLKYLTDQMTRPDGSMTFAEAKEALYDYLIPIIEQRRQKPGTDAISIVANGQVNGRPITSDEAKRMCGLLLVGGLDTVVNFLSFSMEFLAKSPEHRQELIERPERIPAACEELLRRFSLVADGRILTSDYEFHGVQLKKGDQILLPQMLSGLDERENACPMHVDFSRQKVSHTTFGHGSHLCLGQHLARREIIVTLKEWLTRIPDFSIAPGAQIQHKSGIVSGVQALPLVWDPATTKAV
# T4: Cytochrome P450 4A11 (human, UniProt Q02928 5-519)
# T4 construct: cytochrome P450 4A11, human fatty acid ω-hydroxylase
# T4 sequence (looked up): T1 sequence (Q02928 5-519)
# B1: Alexa Fluor 488–labeled FABP1 (natural protein, human, UniProt P07148 1-127, looked up)
# chain: MSFSGKYQLQSQENFEAFMKAIGLPEELIQKGKDIKGVSEIVQNGKHFKFTITAGSKVIQNEFTVGEECELETMTGEKVKTVVQLEGDNKLVTTFKNIKSVTELNGDIITNTMTLGDIVFKRISKRI
# modifications: Alexa Fluor 488 C5 maleimide on Cys-71 of the construct (Cys-69 of FABP1); low background labeling of free amines
# notes: final construct is a 15,185.4 Da protein; Cys-69 of FABP1 is Cys-71 in the construct. numbers count on: Cys-71 on the construct, Cys-69 on FABP1; The unlabeled, delipidated form of the same protein was used in the palmitate transfer and catalytic assays; also called Alexa-FABP1; Alexa-488-labeled FABP1; not shown: GST, N-terminal, cleaved; His6, C-terminal, kept
# Tests used:
# P450 4A11 [1] = target: T1, P450 4A11; design: made in house; host or cells: E. coli; method as in PMID 25203493; settings: cited from earlier work
# P450 4A11 [2] = target: T1, P450 4A11
# P450 4A11 [3] = target: T2, P450 4A11; assay: Fluorescence titration of Alexa-FABP1 with P450 4A11; type: binding
# Procedure: (§1) The Alexa-FABP1 construct was tested for P450 binding in a fluorescence titration with P450 4A11.
# (§2) Figure 10 Binding of Alexa-FABP1 to P450 4A11.A, equilibrium binding titration of Alexa-FABP1 (25 nM) with P450 4A11 as the titrant (0–50 nM). Titrations were performed in 10 mM (closed circles) or 100 mM (open circles) potassium phosphate buffer (pH 7.4). A control reaction was performed with P450 101A1 (P450cam) in 100 mM KPhos (open squares). The change in fluorescence upon protein–protein binding was normalized to the corresponding change in a buffer control. […] Each data point corresponds to one independent replicate, ≥3 biological replicates were collected to confirm the effect. B, kinetics of binding of Alexa-FABP1 (0.125 μM) and P450 4A11 (0.125 μM). Six traces were averaged, and the data were fit to a single exponential curve (in red). The extracted binding rate was 2.0 ± 0.2 s^−1. FABP1, fatty acid binding protein.
# Alexa-FABP1 (25 nM [estimated by an asborbance at 280 nm prior to conjugation reaction, accounting for dilution, and assuming no protein loss during the reaction]) was prepared in potassium phosphate buffer (10 mM or 100 mM, pH 7.4) in a 1 ml glass cuvette. A buffer baseline was recorded using an OLIS DM-45 spectrofluorometer (1.24 mm slit width) with excitation wavelength of 470 nm and scanning emission spectra from 500 to 600 nm. P450 4A11 (stored in 100 mM potassium phosphate buffer [pH 7.4] containing 20% glycerol) was titrated (0–50 nM) into the Alexa-FABP1 solution. The same experiment was repeated but with the P450 4A11 buffer used as the titrant to normalize the data for any solvent effect. […] As stimulation was observed by the P450 interaction, the value of one was subtracted from the normalized fluorescence values so that the curve would have an (x, y) intercept of (0, 0). Kd values were calculated fitting plots of the normalized fluorescence at emission maximum versus concentration of P450 4A11 using a quadratic equation in GraphPad Prism software.
# P450 4A11 [4] = target: T2, P450 4A11; assay: Alexa-FABP1 and P450 4A11 association kinetics (stopped-flow fluorescence); type: binding
# Procedure: We then investigated whether the rate of protein–protein association could be estimated using our fluorescent construct. A solution of Alexa-FABP1 (125 nM final concentration) was rapidly mixed with P450 4A11 (125 Nm final concentration), and Alexa-488 fluorescence was monitored over time. The data were fit to a single exponential equation and yielded an association rate of 2.0 ± 0.2 s^−1 (Fig. 10B).
# To estimate a rate of interaction for FABP1 and P450, we loaded the protein–protein binding data (Fig. 10B) and fit the data to a simple model, E+F↔EF , as described in the Experimental procedures section. The software fit a kon rate of 2.0 × 10^7 M^−1 s^−1, close to that estimated by using the extracted binding rate ∼2 s^−1 at the concentration (0.125 μM) of either reaction component (i.e., 2 s^−1/0.125 μM = 16 μM^−1 s^−1 = 1.6 × 10^7 M^−1 s^−1).
# Mixing solutions (2 ml) of (A) Alexa-FABP1 (0.25 μM [estimated by A280 prior to conjugation reaction, accounting for dilution, and assuming no protein loss during the reaction as described earlier]) and (B) P450 4A11 (0.25 μM) were prepared in potassium phosphate buffer (100 mM, pH 7.4) and loaded into the stopped-flow spectrofluorometer described earlier. The instrument (1.24 mm slit width) was set with an excitation wavelength of 470 nm and Oriel end-on filter for emission >495 nm. The fluorescence maximum of Alexa-FABP1 is 510 nm as described earlier, and stimulation is observed upon protein–protein binding (see “Titrations of Alexa-FABP1 with P450 4A11”). At least six replicate measurements were recorded, the spectra were processed such that the fluorescence gain (from DAUDA binding) began at an (x, y) intercept of (0, 0), and the spectra were averaged. A smoothing factor of 0.4 was applied to the data (in Microsoft Excel), and the resulting curve was fit to a single exponential plot in GraphPad Prism, and the rate of association was extracted. The data were loaded into KinTek Explorer and fit to a minimal kinetic model of protein–protein association (i.e., E+F↔EF ), and a second-order rate constant for the association was extracted.
# P450 101A1 (P450cam) = target: T3, P450 101A1 (P450cam); assay: Control fluorescence titration of Alexa-FABP1 with P450 101A1 (P450cam); type: binding, bacterial; settings: 100 mM KPhos
# Procedure: as §1, §2
# Cytochrome P450 4A11 [5] = target: T4, Cytochrome P450 4A11; assay: stopped-flow fluorescence kinetics; Alexa-FABP1 and P450 4A11 rapidly mixed, 0.125 μM each final; 100 mM potassium phosphate, pH 7.4; excitation 470 nm, emission >495 nm; single exponential fit and KinTek Explorer fit to E+F↔EF; settings: both partners purified
# Cytochrome P450 4A11 [6] = target: T4, Cytochrome P450 4A11; assay: other fluorescence titration; Alexa-FABP1 (25 nM) in the cuvette, P450 4A11 titrated in (0–50 nM); 10 mM potassium phosphate, pH 7.4; excitation 470 nm, emission maximum 510 nm; quadratic fit; no phospholipid; settings: both partners purified
# Cytochrome P450 4A11 [7] = target: T4, Cytochrome P450 4A11; assay: other fluorescence titration; Alexa-FABP1 (25 nM) in the cuvette, P450 titrated in (P450 4A11 0–50 nM); 100 mM potassium phosphate, pH 7.4; excitation 470 nm, emission maximum 510 nm; normalized to a buffer titration; no phospholipid; settings: both partners purified
molecule,measurement,setting,value
O=C(O)CCCCCCCCCCCO [12-OH laurate],P450 heme Soret spectral shift induced,P450 4A11 [1],typical type I spectral shift
CC(=O)N1CCN(c2ccc(OCC3COC(Cn4ccnc4)(c4ccc(Cl)cc4Cl)O3)cc2)CC1 (centres unmarked) [ketoconazole],P450 heme Soret spectral shift induced,P450 4A11 [2],type II
Alexa-FABP1: FABP1 labeled at Cys-71 with Alexa-488 C5 maleimide,decrease of Kd on reducing ionic strength,P450 4A11 [3]; 100 mM to 10 mM potassium phosphate,~38 fold
same,Kd,P450 4A11 [3]; dependent on ionic strength,3 to 124 nM
same,rate of protein–protein association,"P450 4A11 [4]; Alexa-FABP1 0.125 μM, P450 4A11 0.125 μM, single exponential",~2 s⁻¹ and 2.0 ± 0.2 s⁻¹
same,kon of FABP1–P450 4A11 association (k6),P450 4A11 [4]; KinTek fit to E+F↔EF,~2e+07 M⁻¹ s⁻¹
same,change of Alexa-FABP1 fluorescence,P450 101A1 (P450cam),mild attenuation of fluorescence
B1,koff,Cytochrome P450 4A11 [5],2.4 s⁻¹
same,kon,Cytochrome P450 4A11 [5],2e+07 M⁻¹ s⁻¹
same,Kd,Cytochrome P450 4A11 [6],3.3 ± 0.9 nM
same,Kd,Cytochrome P450 4A11 [7],120 ± 80 nM
